{"source": "patent US20200115458A1", "about": "(CALIFORNIA INSTITUTE FOR BIOMEDICAL RESEARCH, published 2020)", "binders": {"B1": {"name": "Ins1-L1-Ab1L IgG (antibody)", "light": "FVNQHLCGSDLVEALYLVCGERGFFYTDPTGGGPRRGIVEQCCHSICSLYQLENYCNGGGGSETVLTQSPTTMATSPGEKITITCSASSTISSNYLHWYQQKPGFSPKLLIYRTSDLASGVPTRFSGSGSGTSYSLTIGTMEAEDVATYYCQQGSSIPFTFGSGTKLEINRADTAPTVSIFPPSSEQLTSGGASVVCFLNNFYPKDINVKWKIDGSERQNGVLNSWTDQDSKDSTYSMSSTLTLTKDEYERHNSYTCEATHKTSTSPIVKSFNRNEC", "heavy": "QVQLQQPGAELVKPGASVKLSCKASGYTFTNYWMHWVKQRPGRGLEWIGRIDLNSGGTNYNYNEKFKTKATLTVDKPSSTAYMQLSSLTSEDSAVYYCANYYGSSWFAYWGQGTTLTVSSAKTTAPSVYPLAPVCGDTTGSSVTLGCLVKGYFPEPVTLTWNSGSLSSGVHTFPAVLQSDLYTLSSSVTVTSSTWPSQSITCNVAHPASSTKVDKKIEPRGPTIKPCPPCKCPAPNLLGGPSVFIFPPKIKDVLMISLSPIVTCVVVDVSEDDPDVQISWFVNNVEVHTAQTQTHREDYNSTLRVVSALPIQHQDWMSGKEFKCKVNNKDLPAPIERTISKPKGSVRAPQVYVLPPPEEEMTKKQVTLTCMVTDFMPEDIYVEWTNNGKTELNYKNTEPVLDSDGSYFMYSKLRVEKKNWVERNSYSCSVVHEGLHNHHTTKSFSRTPGK", "notes": "also called Ins-L1-Ab1L IgG; Ins1-L1-AbL IgG"}, "B2": {"name": "Ins1-L3-Ab4 Fab (Fab)", "light": "FVNQHLCGSDLVEALYLVCGERGFFYTDPTGGGPRRGIVEQCCHSICSLYQLENYCNGGGEAAAKEAAAKEAAAKAGGEIVLTQSPGTLSLSPGERATLSCSASSTISSNYLHWYQQKPGQAPRLLIYRTSDLASGIPDRFSGSGSGTDFTLTISRLEPEDFAVYYCQQGSSIPFTFGQGTKLEIKRTVAAPSVFIFPPSDEQLKSGTASVVCLLNNFYPREAKVQWKVDNALQSGNSQESVTEQDSKDSTYSLSSTLTLSKADYEKHKVYACEVTHQGLSSPVTKSFNRGEC", "heavy": "QVQLVQSGAEVKKPGASVKVSCKASGYTFTNYWMHWVRQAPGQGLEWMGRIDLNSGGTNYNYAQKFQGRVTMTRDTSISTAYMELSRLRSDDTAVYYCARYYGSSWFAYWGQGTLVTVSSASTKGPSVFPLAPSSKSTSGGTAALGCLVKDYFPEPVTVSWNSGALTSGVHTFPAVLQSSGLYSLSSVVTVPSSSLGTQTYICNVNHKPSNTKVDKKVEPKSCDKTHT", "notes": "also called Ins1-L3-Ab4L (Fab); Ins1-L3-Ab4L and Ab4H(Fab)"}, "B3": {"name": "Ins1-L3-Ab5 Fab (Fab)", "light": "FVNQHLCGSDLVEALYLVCGERGFFYTDPTGGGPRRGIVEQCCHSICSLYQLENYCNGGGEAAAKEAAAKEAAAKAGGEIVLTQSPGTLSLSPGERATLSCSASSTISSNYLHWYQQKPGQAPRLLIYRTSDLASGIPDRFSGSGSGTDFTLTISRLEPEDFAVYYCQQGSSIPFTFGQGTKLEIKRTVAAPSVFIFPPSDEQLKSGTASVVCLLNNFYPREAKVQWKVDNALQSGNSQESVTEQDSKDSTYSLSSTLTLSKADYEKHKVYACEVTHQGLSSPVTKSFNRGEC", "heavy": "QVQLVQSGAEVKKPGASVKVSCKASGYTFTNYWMHWVRQAPGQGLEWMGWIDLNSGGTNYNYAQKFQGRVTMTRDTSISTAYMELSRLRSDDTAVYYCARYYGSSWFAYWGQGTLVTVSSASTKGPSVFPLAPSSKSTSGGTAALGCLVKDYFPEPVTVSWNSGALTSGVHTFPAVLQSSGLYSLSSVVTVPSSSLGTQTYICNVNHKPSNTKVDKKVEPKSCDKTHT", "notes": "As Ins1-L3-Ab4 Fab but with the Ab5H Fab heavy chain (Ab4H mutated at position 50); also called Ins1-L3-Ab5L (Fab)"}, "B4": {"name": "Ins1-L1-Ab1H IgG (antibody)", "heavy": "FVNQHLCGSDLVEALYLVCGERGFFYTDPTGGGPRRGIVEQCCHSICSLYQLENYCNGGGGSQVQLQQPGAELVKPGASVKLSCKASGYTFTNYWMHWVKQRPGRGLEWIGRIDLNSGGTNYNYNEKFKTKATLTVDKPSSTAYMQLSSLTSEDSAVYYCANYYGSSWFAYWGQGTTLTVSSAKTTAPSVYPLAPVCGDTTGSSVTLGCLVKGYFPEPVTLTWNSGSLSSGVHTFPAVLQSDLYTLSSSVTVTSSTWPSQSITCNVAHPASSTKVDKKIEPRGPTIKPCPPCKCPAPNLLGGPSVFIFPPKIKDVLMISLSPIVTCVVVDVSEDDPDVQISWFVNNVEVHTAQTQTHREDYNSTLRVVSALPIQHQDWMSGKEFKCKVNNKDLPAPIERTISKPKGSVRAPQVYVLPPPEEEMTKKQVTLTCMVTDFMPEDIYVEWTNNGKTELNYKNTEPVLDSDGSYFMYSKLRVEKKNWVERNSYSCSVVHEGLHNHHTTKSFSRTPGK", "light": "ETVLTQSPTTMATSPGEKITITCSASSTISSNYLHWYQQKPGFSPKLLIYRTSDLASGVPTRFSGSGSGTSYSLTIGTMEAEDVATYYCQQGSSIPFTFGSGTKLEINRADTAPTVSIFPPSSEQLTSGGASVVCFLNNFYPKDINVKWKIDGSERQNGVLNSWTDQDSKDSTYSMSSTLTLTKDEYERHNSYTCEATHKTSTSPIVKSFNRNEC", "notes": "also called Ins-L1-Ab1H IgG"}, "B5": {"name": "Ins1-L3-Ab4L IgG (antibody)", "light": "FVNQHLCGSDLVEALYLVCGERGFFYTDPTGGGPRRGIVEQCCHSICSLYQLENYCNGGGEAAAKEAAAKEAAAKAGGEIVLTQSPGTLSLSPGERATLSCSASSTISSNYLHWYQQKPGQAPRLLIYRTSDLASGIPDRFSGSGSGTDFTLTISRLEPEDFAVYYCQQGSSIPFTFGQGTKLEIKRTVAAPSVFIFPPSDEQLKSGTASVVCLLNNFYPREAKVQWKVDNALQSGNSQESVTEQDSKDSTYSLSSTLTLSKADYEKHKVYACEVTHQGLSSPVTKSFNRGEC", "heavy": "QVQLVQSGAEVKKPGASVKVSCKASGYTFTNYWMHWVRQAPGQGLEWMGRIDLNSGGTNYNYAQKFQGRVTMTRDTSISTAYMELSRLRSDDTAVYYCARYYGSSWFAYWGQGTLVTVSSASTKGPSVFPLAPSSKSTSGGTAALGCLVKDYFPEPVTVSWNSGALTSGVHTFPAVLQSSGLYSLSSVVTVPSSSLGTQTYICNVNHKPSNTKVDKKVEPKSCDKTHTCPPCPAPPVAGPSVFLFPPKPKDTLMISRTPEVTCVVVDVSHEDPEVKFNWYVDGVEVHNAKTKPREEQYNSTYRVVSVLTVLHQDWLNGKEYKCKVSNKGLPSSIEKTISKAKGQPREPQVYTLPPSRDELTKNQVSLTCLVKGFYPSDIAVEWESNGQPENNYKTTPPVLDSDGSFFLYSKLTVDKSRWQQGNVFSCSVMHEALHNHYTQKSLSLSPGK", "notes": "Insulin immunoglobulin fusion protein: Ins1-L3-Ab4L light chain fusion paired with the full humanized heavy chain Ab4H; also called Ins1-L3-Ab4 IgG; Ins1-L3-Ab4L and Ab4H"}}, "key": {"[1]": {"target": "T1, human ASGPR (asialoglycoprotein receptor) (human, UniProt P07306 62-291)", "T1 construct": "also called human ASPGR; ASGPR antigen (human)", "T1 sequence": "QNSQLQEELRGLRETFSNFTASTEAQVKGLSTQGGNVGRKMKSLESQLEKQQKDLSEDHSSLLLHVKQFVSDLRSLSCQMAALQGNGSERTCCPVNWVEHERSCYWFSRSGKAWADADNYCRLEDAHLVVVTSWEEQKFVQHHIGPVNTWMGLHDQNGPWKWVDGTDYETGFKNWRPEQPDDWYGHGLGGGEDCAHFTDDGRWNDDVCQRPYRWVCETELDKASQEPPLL", "experiment": "ELISA, coated ASGPR antigen (FIG. 3)", "description": "(§1) The activity of anti-ASGPR within the Ins1-L1-Ab1L IgG (SEQ ID NOS: 79, 29) and Ins1-L1-Ab1H IgG (SEQ ID NOS: 78, 30) fusion proteins for human ASGPR was tested by ELISA assay. Briefly, 100 ng/well ASGPR antigen (human, rat and cyno monkey) was coated on 96-well plate in PBS at 4° C. overnight; the wells were blocked with 2% milk/PBST (0.5% Tween-20 in PBS) at room temperature for 1 hr; antibodies were added in concentrations of 10 nM, 1 nM and 0.1 nM in 2% milk/PBST at room temperature for 2 hr; the wells were washed with PBST 4-5 times; anti-light chain kappa (sigma A7164) in 2% milk/PBST was added and the plate incubated at room temperature for 1 hr; the wells were washed with PBST 4-5 times; and the reaction was developed with QuantaBlu fluorogenic peroxidase substrate (Life technologies, 15169), and quantified using a Spectramax fluorescence plate reader with excitation at 325 nm and emission at 420 nm. […] The figures illustrate that anti-ASGPR antibodies fused to insulin therapeutic peptides retain activity for their antigen ASGPR."}, "rat ASGPR [2]": {"target": "T2, rat ASGPR (rat, UniProt P02706 61-284)", "T2 construct": "also called ASGPR antigen (rat)", "T2 sequence": "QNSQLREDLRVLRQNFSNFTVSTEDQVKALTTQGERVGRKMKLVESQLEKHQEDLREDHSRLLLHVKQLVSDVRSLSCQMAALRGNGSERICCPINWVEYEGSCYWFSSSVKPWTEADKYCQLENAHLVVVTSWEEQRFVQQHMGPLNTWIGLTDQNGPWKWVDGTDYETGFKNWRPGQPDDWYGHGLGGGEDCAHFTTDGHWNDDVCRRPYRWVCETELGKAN", "experiment": "ELISA, 100 ng/well coated ASGPR antigen, antibodies at 10, 1 and 0.1 nM, anti-kappa detection", "description": "as §1"}, "[3]": {"target": "T1, human ASGPR (asialoglycoprotein …)", "experiment": "ELISA (FIG. 16)"}, "rat ASGPR [4]": {"target": "T2, rat ASGPR", "experiment": "ELISA (FIG. 16)"}, "cynomolgus monkey ASGPR [5]": {"target": "T3, cynomolgus monkey ASGPR (cynomolgus monkey, UniProt P07306 62-291 (human entry))", "T3 construct": "also called cyno monkey ASGPR; cyno monkey ASPGR", "T3 chain": "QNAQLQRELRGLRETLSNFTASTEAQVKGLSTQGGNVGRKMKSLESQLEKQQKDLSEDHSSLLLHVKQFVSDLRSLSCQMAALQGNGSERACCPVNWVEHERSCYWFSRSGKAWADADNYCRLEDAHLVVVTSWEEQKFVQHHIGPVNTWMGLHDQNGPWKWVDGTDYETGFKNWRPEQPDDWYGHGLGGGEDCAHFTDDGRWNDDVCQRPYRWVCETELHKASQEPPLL", "experiment": "ELISA (FIG. 16)"}, "[6]": {"target": "T1, human ASGPR (asialoglycoprotein …)", "experiment": "ELISA (FIG. 37)", "description": "(§2) The activity of anti-ASGPR within Ins1-L3-Ab4 Fab and Ins1-L3-Ab5 Fab fusion proteins for human, rat, and cyno monkey ASGPR was tested by ELISA assay as shown in FIGS. 37-39 as generally described in Example 3. 100 ng/well ASGPR antigen (human, rat, and cyno monkey) was coated on 96-well plate in PBS 4° C. over night, blocked with 2% milk/PBST (0.5% Tween-20 in PBS) at room temperature for 1 hr, and incubated with the fusion proteins at 4 nM, 20 nM, 100 nM, and 500 nM in 2% milk/PBST at room temperature for 2 hr. Wells were then washed with PBST for 4-5 times, incubated with mouse anti-insulin (MA5-12037, ThermoFisher Scientific) in 2% milk/PBST at room temperature for 2 hr, washed with PBST for 4-5 times, incubated with goat anti-mouse IgG-HRP (115-035-008, Jackson ImmunoResearch) for 30 min, and washed with PBST for 4-5 times The plates were developed with QuantaBlu fluorogenic peroxidase substrate (Life technologies, 15169), and quantified using Spectramax fluorescence plate reader with excitation at 325 nm and emission at 420 nm.\n(§3) The figures illustrate that anti-ASGPR antibodies fused to insulin therapeutic peptides retain activity for their antigen ASGPR as determined by ELISA assay."}, "rat ASGPR [7]": {"target": "T2, rat ASGPR", "experiment": "ELISA (FIG. 38)", "description": "as §2, §3"}, "cynomolgus monkey ASGPR [8]": {"target": "T3, cynomolgus monkey ASGPR", "experiment": "ELISA (FIG. 39)", "description": "as §2, §3"}}, "data": [{"binder": "B1", "values": [{"measurement": "binding result", "setting": "[1]", "result": "binds"}, {"measurement": "binding result", "setting": "rat ASGPR [2]", "result": "binds"}]}, {"binder": "B2", "values": [{"measurement": "binding result", "setting": "[3]", "result": "binds"}, {"measurement": "binding result", "setting": "rat ASGPR [4]", "result": "binds"}, {"measurement": "binding result", "setting": "cynomolgus monkey ASGPR [5]", "result": "binds"}]}, {"binder": "B3", "values": [{"measurement": "binding result", "setting": "[6]", "result": "binds"}, {"measurement": "binding result", "setting": "rat ASGPR [7]", "result": "binds"}, {"measurement": "binding result", "setting": "cynomolgus monkey ASGPR [8]", "result": "binds"}]}, {"binder": "B4", "values": [{"measurement": "binding result", "setting": "[1]", "result": "binds"}, {"measurement": "binding result", "setting": "rat ASGPR [2]", "result": "binds"}]}, {"binder": "B5", "values": [{"measurement": "binding result", "setting": "[3]", "result": "binds"}, {"measurement": "binding result", "setting": "rat ASGPR [4]", "result": "binds"}, {"measurement": "binding result", "setting": "cynomolgus monkey ASGPR [5]", "result": "binds"}]}]}
